Laboratory results from US20090291504A1.

Tests used:
[1] = tested on: Cre fragment β1 (reported in Casanova et al., 2003)
[2] = molecular target: cCre (C-terminal half of Cre fused at its N-terminus to the C-peptide leucine zipper) (bacteriophage P1) (UniProt P06956); experiment: cell-based or functional assay
[3] = molecular target: nlcCre (cCre with an extra SV40 large T antigen NLS) (Simian Virus 40; bacteriophage P1) (UniProt P06956); experiment: cell-based or functional assay
[4] = molecular target: Cre fragments alpha5 + beta1 (Casanova et al. 2003) (bacteriophage P1?) (UniProt P06956+P06956); experiment: cell_activity; details: HEK293 GFP reporter
[5] = molecular target: T1, C-terminal Cre fragment identical to that in cCre, without leucine zipper peptide, P06956
T1 chain: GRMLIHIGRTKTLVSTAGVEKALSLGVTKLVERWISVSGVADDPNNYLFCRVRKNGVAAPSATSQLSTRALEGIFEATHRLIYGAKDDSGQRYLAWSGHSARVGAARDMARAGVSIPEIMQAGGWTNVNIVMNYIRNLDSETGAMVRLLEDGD

## Cre fragment α5 (reported in Casanova et al., 2003)
[1]
  Cre activity recovered from fragments lacking protein interaction motifs (tissue culture): less than 2% Cre activity was recovered

## nCre (N-terminal half of Cre with an N-terminal SV40 large T antigen NLS, fused at its C-terminus to the N-peptide leucine zipper) (from UniProt P06956 1-190) (enzyme)
[2]
  recombinase activity of intact Cre molecule reconstituted (GFP/mCherry reporter, flow cytometry, co-transfected HEK293 cells): 12.1%
[3]
  Cre activity recovered (GFP/mCherry reporter, flow cytometry, co-transfected HEK293 cells): 27.2%

## ATAACTTCGTATAATGTATGCTATACGAAGTTAT (double strand) [loxP]
[4]
  Cre recombinase activity relative to intact Cre: < 2%

B1: N-terminal Cre fragment identical to that in nCre, without leucine zipper peptide (protein)
chain: MSNLLTVHQNLPALPVDATSDEVRKNLMDMFRDRQAFSEHTWKMLLSVCRSWAAWCKLNNRKWFPAEPEDVRDYLLYLQARGLAVKTIQQHLGQLNMLHRRSGLPRPSDSNAVSLVMRRIRKENVDAGERAKQALAFERTDFDQVRSLMENSDRCQDIRNLAFLGIAYNTLLRIAEIARIRVKDISRTDG
[5]
  Cre activity generated by co-expression of fragments without interaction motifs (tissue culture): less than 0.5% of Cre activity
